In US12616648B2, “Cosmetic composition” (GIVAUDAN SA, priority 2018, dated 2026):

Tested on: Normal Human Keratinocytes (NHEKs)
Test: NHEK scratch assay (wound healing)
Type: cell-based
Settings: HB-EGF 1 ng/ml (positive control), overnight pre-incubation, 8 h after scratch
Protocol: Normal Human Keratinocytes (NHEKs) were seeded at 200′000 cells per well pre-coated with Type I collagen in 12-wells culture plates in the presence of keratinocyte growth medium (KGM, Lonza) supplemented with growth factors such as hydrocortisone, transferrin, epinephrine, bovine pituitary extract (BPE), recombinant human epidermal growth factor (rhEGF) and insulin. At confluence, cells were pre-incubated with the Patchouli stem extract of Example 1 at a concentration of 0.5% (v/v) or heparin-binding epidermal growth factor (HB-EGF) at 1 ng/ml (positive control) overnight in keratinocyte basal medium without supplement. After this pre-conditioning phase, the cell monolayer sticking to the bottom of the well was scratched with a P200 sterile cone, followed by two washes with phosphate buffered saline (PBS). The NHEK were then again stimulated with Patchouli extract at 0.5% or HB-EGF at 1 ng/ml for 8 h in basal medium.
The wound healing process was analyzed by pictures recording at T0 and T8h using inverting optical microscope (Zeiss). After image analysis, the percentage of scratch closing was determined relative to untreated condition.

B1: HB-EGF: heparin-binding epidermal growth factor, positive control in the scratch assay (protein, UniProt Q99075 63-148, looked up)
Heparin-binding EGF-like …: DLQEADLDLLRVTLSSKPQALATPNKEEHGKRKKKGKGLGKKRDPCLRKYKDFCIHGECKYVKELRAPSCICHPGYHGERCHGLSL
- wound healing (scratch closing relative to untreated condition): about +60%
